# According to article PMC4773759 (Scientific Reports, 2016):
# Entries after “also recorded” stand apart in the source; their conditions may differ.
# Experiments:
# rhECE-1 [1] = target: T1, rhECE-1 (Homo sapiens, UniProt P42892); experiment: ECE-1 activity, bradykinin-based QFS assay; assay type: biochemical; settings: 10 ng/μL, rhECE-1 0.05 ng/μL, 1 h pre-incubation 37 °C, QFS 40 μM; comparisons with K49-P1-20 or enzyme alone
# T1 construct: purchased R & D systems
# T1 sequence (P42892 1-770): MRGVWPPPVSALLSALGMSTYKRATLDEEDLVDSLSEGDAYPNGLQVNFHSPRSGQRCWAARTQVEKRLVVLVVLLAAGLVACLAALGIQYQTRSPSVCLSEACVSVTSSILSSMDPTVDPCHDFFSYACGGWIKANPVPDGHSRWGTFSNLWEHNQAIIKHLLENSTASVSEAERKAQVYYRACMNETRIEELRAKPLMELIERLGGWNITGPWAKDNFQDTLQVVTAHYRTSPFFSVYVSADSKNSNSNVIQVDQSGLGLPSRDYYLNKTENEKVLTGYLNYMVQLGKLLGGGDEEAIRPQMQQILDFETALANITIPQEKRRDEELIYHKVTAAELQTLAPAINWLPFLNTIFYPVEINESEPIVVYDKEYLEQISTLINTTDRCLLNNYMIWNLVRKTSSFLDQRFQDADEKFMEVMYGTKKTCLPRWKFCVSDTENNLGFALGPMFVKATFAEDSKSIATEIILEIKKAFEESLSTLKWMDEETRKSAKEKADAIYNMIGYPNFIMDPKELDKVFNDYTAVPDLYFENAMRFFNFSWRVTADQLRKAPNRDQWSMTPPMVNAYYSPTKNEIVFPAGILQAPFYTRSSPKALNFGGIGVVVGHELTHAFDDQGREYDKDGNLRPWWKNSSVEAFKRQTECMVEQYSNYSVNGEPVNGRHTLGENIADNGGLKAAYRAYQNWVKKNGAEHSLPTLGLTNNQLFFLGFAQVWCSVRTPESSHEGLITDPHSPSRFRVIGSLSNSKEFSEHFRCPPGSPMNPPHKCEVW
# Method: Enzyme activities were measured using a previously described bradykinin-based quenched fluorescent substrate (QFS) assay. Briefly, rhECE-1 or NEP (0.05 ng/μL) was incubated with ECE-1 buffer for 1 h at 37 °C. Where indicated, venom, B. asper myotoxin II or relevant synthetic peptide (10 ng/μL) was added to the reaction mixture and pre-incubated (1 h at 37 °C) with rhECE-1 or rhNEP prior to the addition of substrate ((7-methoxycoumarin-4-yl)acetyl-Arg-Pro-Pro-Gly-Phe-Ser-Ala-Phe-Lys(2, 4-dinitrophenyl); 40 μM final). The specificity of ECE-1 and NEP mediated cleavage was confirmed using the inhibitors CGS35066 (500 nM) and thiorphan (10 µM).
# Increase in fluorescence over time (excitation and emission wavelengths of 320 and 405 nm respectively) was taken as evidence of enzyme activity. The specific activity for each enzyme was calculated using a standard curve of known 7-methoxycoumarin concentrations. Enzyme alone (rhECE-1, rhNEP, rhACE-2 and rhIDE) was used as a control in all studies examining the effect of K49-P1-20 on enzyme activity.
# Non-linear regression analysis in GraphPad Prism software (version 6.04; Michaelis Menton equation) was used to calculate the enzyme kinetic parameters (Vmax and Km). In all enzyme assays the amount of substrate cleaved over 80 min was determined. Where indicated, enzyme activity in the presence of K49-P1-20 was expressed as a % of the respective control. The enzyme kinetic parameters were determined based on the rate of substrate cleavage.
# rhECE-1 [2] = target: T1, rhECE-1; experiment: Cleavage of endogenous Aβ42 in cerebrospinal fluid by activated ECE-1 (ELISA); assay type: biochemical; settings: CGS35066 500 nM, rhECE-1 0.04 ng/μL, K49-P1-20 300 ng/μL, 4 h
# Method: Aβ42 levels were measured using a commercially available Human Aβ42 ELISA kit (Life technologies), according to the manufacturer’s instructions. rhECE-1 (0.04 ng/μL) alone, rhECE + K49-P1-20 (300 ng/μL) or rhECE + K49-P1-20 + CGS35066 (500 nM) was incubated at 37 °C for 1 hr. Cerebrospinal fluid (diluted 1:10 in assay buffer) from patients with Alzheimer’s disease was added to each reaction mixture. The final volume of cerebrospinal fluid added was kept to 1/10th the final volume of reaction mixture, which was adjusted using ECE-1 buffer. Aliquots of equal volume were taken at 0 and 4 h, snap frozen in dry ice and stored at −80 °C until analysed by ELISA. The amount of Aβ42 remaining after 4 h was expressed as a % of initial.
# trypsin = trypsin mediated cleavage of K49-P1-20
Compound,Stimulation of ECE-1 activity (in words) (rhECE-1 [1]),further results
K49-P9-34: synthetic peptide from the N-terminal region of B. asper myotoxin II,significantly less,
O=C(O)C(Cc1ccc2c(c1)oc1ccccc12)NCP(=O)(O)O (centres unmarked) [CGS35066],,Effect on the Aβ42 decrease by ECE-1 + K49-P1-20 in cerebrospinal fluid (rhECE-1 [2]): blocked
B. asper myotoxin II,ECE-1 stimulation,
K49-P1-34: synthetic peptide corresponding to the N-terminal region of B. asper myotoxin II,mimicked the stimulator effects; also recorded: No significant difference,
SLFELGKMILQETGKNPAKS,,cleaved bond (trypsin): K7-M8
